Assay results: patent US20230059181A1
pKd: −log10 of the molar value.

Target: Human CD64 (FcγRI), His-tagged (human) (UniProt P12314)
Assay: SPR single cycle kinetics, 1:1 model, His-CD64 captured, antibody as analyte

Chain of Human CD64 (FcγRI), His-tagged (human) (P12314 16-288 limits assumed): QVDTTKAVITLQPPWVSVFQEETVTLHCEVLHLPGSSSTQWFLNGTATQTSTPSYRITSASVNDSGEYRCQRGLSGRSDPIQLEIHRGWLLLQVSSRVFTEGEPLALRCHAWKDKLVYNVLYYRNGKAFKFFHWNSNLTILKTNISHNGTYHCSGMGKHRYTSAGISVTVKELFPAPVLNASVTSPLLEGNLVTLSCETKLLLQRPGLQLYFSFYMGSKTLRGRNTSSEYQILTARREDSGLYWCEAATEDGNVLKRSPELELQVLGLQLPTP

pKd	koff [s⁻¹]	kon [M⁻¹ s⁻¹]	Substance
8.58	0.00083	319000	Irrelevant IgG1 (antibody)
8.22	0.00249	417000	Irrelevant IgG4 (antibody)
